B1: HDV Ribozyme (parent)
chain: GGCCGGCAUGGUCCCAGCCUCCUCGCUGGCGCCGGCUGGGCAACAUUCCGAGGGGACCGUCCCCUCGGUAAUGGCGAAUGGGACCCA

This data set covers variants of B1. Briefly: self-cleavage, relative activity (ratio to wild type); higher = more cleavage; co-transcriptional.
Take GGCCGGCAUGGUCCCAGCCACCUCGCUGGCGCCGGCUGGGCAACAUUCCGAGGGGACCGUCCCAUCGGUAAUGGCGAAUGGGACCCA [U20A C64A]: the self-cleavage turned out to be 0.113.
GGCCUGCAUGGUCCCAGCCUCCUCGCUGGCGCCGGCUGGGCAACUUUCCGAGGGGACCGUCCCCUCGGUAAUGGCGAAUGGGACCCA [G5U A45U]: the self-cleavage is 0.277.
Regarding GGCCGGCAUGGUCCCAGCCUCCUCGCUGGCGGCGGCUGGGCAACAUUCCGAGGGGACCGUCCCCUCGCUAAUGGCGAAUGGGACCCA [C32G G68C], the self-cleavage turned out to be 0.
The result for GGCCCGCAUGGUCCCAGCCUCCUCGCUGGCGCCGGCUGGGCAACAUUCCGAGGGGACCGUCCCCUCGGUAAUGGCGAUUGGGACCCA [G5C A78U] reads 0.0755; that for GGCCGGCAUGGUCCCAGCCUCUUCGCUGGCGCCGGCUGCGCAACAUUCCGAGGGGACCGUCCCCUCGGUAAUGGCGAAUGGGACCCA [C22U G39C], 0.115.
Take GGCCGGUAUGGUCCCAGCCUCCUCGCUGGCGCCGGCUGGGCAACAUUCCGAGGGGACCGUCCCCUCUGUAAUGGCGAAUGGGACCCA [C7U G67U]: the self-cleavage amounted to 0.684.
Regarding UGCCGGCAUGGUCCCAGCCUCCUCGCUGGCGCCGGCUGGGCAACAUUCCGAGGGGACCGUCCCCUCGGUAAUGGCGAAUAGGACCCA [G1U G80A], the self-cleavage turned out to be 0.355.
Consider GGCCGGCAUGGUCCCAGCCUCCUCGCUGGCGCCGGCUGGGCAACAUUCCGAGGGGCCCGUCCCCACGGUAAUGGCGAAUGGGACCCA [A56C U65A], for which the self-cleavage amounted to 0.955.
For the variant GACCGGCAUGGUACCAGCCUCCUCGCUGGCGCCGGCUGGGCAACAUUCCGAGGGGACCGUCCCCUCGGUAAUGGCGAAUGGGACCCA [G2A C13A], the self-cleavage was determined as 0.0231.
Take GGCCGGCAUGGUCCCAGCCUCCUCGCUGGCGCCGGCUGGGCAACAUUCCGAGGGGACGGUCCCCUCGUUAAUGGCGAAUGGGACCCA [C58G G68U]: the self-cleavage was found to be 0.959.
Turning to GGCCGGCAUGGUCCCAGCCUCAUCGCUGGCGCCGGCUGGGCAACAUUCCGAGGGGACCGUCCCCUCGGUAAUGACGAAUGGGACCCA [C22A G74A], the self-cleavage is 0.0744.
For GGCCGGCAUGGUUCCAGCCUCCUCGCUGGCGCCGGCUGGGCAACAUUCCGAGGGUACCGUCCCCUCGGUAAUGGCGAAUGGGACCCA [C13U G55U] the value was 0.598.
In the case of GGCCGGCAUGGUCCCAGCCUCCUCGCUGGCGCCGGCUGGGCAGCAUUCCGGGGGGACCGUCCCCUCGGUAAUGGCGAAUGGGACCCA [A43G A51G], the self-cleavage came out at 0.26.
For GGCCGGCAUGGUCCCAGCCUCCUCGCUGGCGCCGGCUGGGCAACAUUCCGAGGGGACCGUCCCCUCAGUAAUGGCGAAUGGGCCCCA [G67A A83C] the value was 0.464; for GGCCGGCAUGGUCCCAGCCUCCGCGCUGGCGCCGGCUGGGCAACAUUCCGAGGGGACCGUCCCCUAGGUAAUGGCGAAUGGGACCCA [U23G C66A], 0.724.
As for GGCCGGCAUGGUGCCAGCCUCCUCGCUGGCGCCGGCUGGGCAACAUUCCGAGGGGACCGUGCCCUCGGUAAUGGCGAAUGGGACCCA [C13G C61G], the self-cleavage was 0.0852.
As for GGCCGGCAUGGUCACAGCCUCCUCGCUGGCGCCGGCUGGGCAACAUUCCGAGGUGACCGUCCCCUCGGUAAUGGCGAAUGGGACCCA [C14A G54U], the self-cleavage came to 0.628.
Consider GGCCGGCAUGGUCCCAGCCUCCUCGCUGGCGCCGGCUGGGGAACAUUCUGAGGGGACCGUCCCCUCGGUAAUGGCGAAUGGGACCCA [C41G C49U], for which the self-cleavage came out at 0.608.
As to GGCGGGCAUGGUCCCAGCCUCCUCGCUGGCGCCGGCUGGGCAACAUUCCGAGGGGACCGUCUCCUCGGUAAUGGCGAAUGGGACCCA [C4G C62U], the self-cleavage came to 0.388.
With GACGGGCAUGGUCCCAGCCUCCUCGCUGGCGCCGGCUGGGCAACAUUCCGAGGGGACCGUCCCCUCGGUAAUGGCGAAUGGGACCCA [G2A C4G], the self-cleavage is 0.0563.
Take GGCUGGCAUGGUCCCAGCCUACUCGCUGGCGCCGGCUGGGCAACAUUCCGAGGGGACCGUCCCCUCGGUAAUGGCGAAUGGGACCCA [C4U C21A]: the self-cleavage was 0.
The result for UGCCGGCAUGGUCCCAGCCUCCUCGCUGGCGCCGGCUGGGCAACAUUCCGAGGGGACCGUCCCCUCGGUAAUGGCGAAUGGAACCCA [G1U G82A] reads 0.241; that for GGCCGGCAUGGUCCCAGCCUCCUCGCUUGCGCCGGCUGGGCAACAUUCCGAGGGGCCCGUCCCCUCGGUAAUGGCGAAUGGGACCCA [G28U A56C], 0.
Regarding GGCCGGCAUGGUCCCAGCCUCCUCGCUGGCGUCGGCUGCGCAACAUUCCGAGGGGACCGUCCCCUCGGUAAUGGCGAAUGGGACCCA [C32U G39C], the self-cleavage was determined as 0.122.
Regarding GGCCGCCAUGGUCCCAGCCUCCUCGCUGGCGCCGGCUGGGCAACAUUCCGAGGGGCCCGUCCCCUCGGUAAUGGCGAAUGGGACCCA [G6C A56C], the self-cleavage was 0.401.
Turning to GGCAGGCAUGGUCCCAGCUUCCUCGCUGGCGCCGGCUGGGCAACAUUCCGAGGGGACCGUCCCCUCGGUAAUGGCGAAUGGGACCCA [C4A C19U], the self-cleavage amounted to 0.0203.
For the variant GGCCGGCAUGGUCCCAGCCUCAUCGCUGGCGCCGGCUGAGCAACAUUCCGAGGGGACCGUCCCCUCGGUAAUGGCGAAUGGGACCCA [C22A G39A], the self-cleavage stood at 0.0528.
On to GGCCGGCAUGGUCCCAGCCUCCUCGCUGGCGCCGGCUGGGCAACAUUCCGAGGGGACGGUCCCCUCGGUAAUGGCGGAUGGGACCCA [C58G A77G], for which the self-cleavage was found to be 0.831.
With GGCCGGCAUGGUCCCAGCCUCCUCGCUGGCACCGGCUGGGCAACAUUCCGAGGGGACCGUCCCCUCGGUAAUGGCGAAUGUGACCCA [G31A G81U], the self-cleavage amounted to 0.126.
For GGCCGGCAUGGUCCCCGCCUCCUCGCUGGCGCCGGCUGGGCAACAUUCCGAGGGGACCGUCCCCUCGGUAAUGGCGAAUGGGAUCCA [A16C C84U] the value was 0.727; for GGCCGGCAUGGUCCCAGCCUCCUCGCUGGCGCCGGCUGGGCAACAUUCCGAGGGGACCAUCCCCUCUGUAAUGGCGAAUGGGACCCA [G59A G67U], 0.918.
As for GGCCGGCAUGGUCCCAGCCUCGUCGCUGGCGCCGGCUGGGCAACAUUCCGAGGGGACCGUCCUCUCGGUAAUGGCGAAUGGGACCCA [C22G C63U], the self-cleavage amounted to 0.147.

The values are drawn from the RNAGym collection of RNA variant scans (doi:10.7554/elife.80360).
